In test [1] the target is hEDAR-mFc (human) (UniProt Q9UNE0). The test is described as follows: sandwich ELISA: hEDAR-mFc coated, anti-human IgG (Fc) CH2-HRP detection; EDA-A1 100 ng/mL with hFc 100 ng/mL, batch 5. For orientation: In an ELISA, binding on a coated surface is turned into a signal by an enzyme label.
The target is the same in test [2]. As to the kind of experiment: sandwich ELISA: hEDAR-mFc coated, anti-human IgG (Fc) CH2-HRP detection; EDA-A1 50 ng/mL, batch 7.
The target is the same in test [3]. The test is described as follows: sandwich ELISA: hEDAR-mFc coated, anti-human IgG (Fc) CH2-HRP detection; EDA-A1 12.5 ng/mL, batch 7.
Test [4] has the same target. The test is described as follows: sandwich ELISA: hEDAR-mFc coated, anti-human IgG (Fc) CH2-HRP detection; EDA-A1 100 ng/mL, batch 5.
Test [5] has the same target. The test is described as follows: sandwich ELISA: hEDAR-mFc coated, anti-human IgG (Fc) CH2-HRP detection; EDA-A1 with hFc, nominal 50 ng/mL, batch 7.
Test [6] has the same target. The test is described as follows: sandwich ELISA: hEDAR-mFc coated, anti-human IgG (Fc) CH2-HRP detection; EDA-A1 25 ng/mL, batch 7.
Test [7] shares this target. As to the kind of experiment: sandwich ELISA: hEDAR-mFc coated, anti-human IgG (Fc) CH2-HRP detection; EDA-A1 with hFc, nominal 12.5 ng/mL, batch 7.
Test [8] has the same target. The test is described as follows: sandwich ELISA: hEDAR-mFc coated, anti-human IgG (Fc) CH2-HRP detection; EDA-A1 with hFc, nominal 6.25 ng/mL, batch 7.
Test [9] has the same target. As to the kind of experiment: sandwich ELISA: hEDAR-mFc coated, anti-human IgG (Fc) CH2-HRP detection; EDA-A1 6.25 ng/mL, batch 7.
For test [10] the target is unchanged. As to the kind of experiment: sandwich ELISA: hEDAR-mFc coated, anti-human IgG (Fc) CH2-HRP detection; EDA-A1 100 ng/mL, batch 7.
For test [11] the target is unchanged. As to the kind of experiment: sandwich ELISA: hEDAR-mFc coated, anti-human IgG (Fc) CH2-HRP detection; EDA-A1 with hFc, nominal 25 ng/mL, batch 7.
Test [12] has the same target. As to the kind of experiment: sandwich ELISA: hEDAR-mFc coated, anti-human IgG (Fc) CH2-HRP detection; EDA-A1 with hFc, nominal 100 ng/mL, batch 7.
Test [13] shares this target. The test is described as follows: sandwich ELISA: hEDAR-mFc coated, anti-human IgG (Fc) CH2-HRP detection; EDA-A1 with hFc, nominal 3.13 ng/mL, batch 7.
Test [14] has the same target. The test is described as follows: sandwich ELISA: hEDAR-mFc coated, anti-human IgG (Fc) CH2-HRP detection; EDA-A1 3.13 ng/mL, batch 7.
Test [15] has as its target EDI200 (human). As to the kind of experiment: bridging ECL in NHP serum; Renzo-1 62.5 ng/mL, signal with 1 µg/mL free EDI200 over signal without (Table 17).
For test [16], the target named is EDI200 (human). As to the kind of experiment: bridging ECL (biotin-EDI200/SulfoTag-EDI200) in NHP serum; Renzo-1 500 ng/mL; plate NCO 129.4.
Test [17] addresses EDI200 (human). As to the kind of experiment: bridging ECL (biotin-EDI200/SulfoTag-EDI200) in NHP serum; Renzo-1 7.81 ng/mL.
The target in test [18] is EDI200 (human). As to the kind of experiment: bridging ECL (biotin-EDI200/SulfoTag-EDI200) in NHP serum; Renzo-1 125 ng/mL.
For test [19], the target named is EDI200 (human). The test is described as follows: bridging ECL (biotin-EDI200/SulfoTag-EDI200) in NHP serum; Renzo-1 62.5 ng/mL.
The target in test [20] is EDI200 (human). The test is described as follows: bridging ECL (biotin-EDI200/SulfoTag-EDI200) in NHP serum; Renzo-1 15.63 ng/mL.
Test [21] has as its target EDI200 (human). As to the kind of experiment: bridging ECL in NHP serum; Renzo-1 500 ng/mL with 1 µg/mL free EDI200 as competitor; plate NCO 129.4.
Test [22] has as its target EDI200 (human). As to the kind of experiment: bridging ECL in NHP serum; Renzo-1 125 ng/mL with 1 µg/mL free EDI200 as competitor.
The target in test [23] is EDI200 (human). The test is described as follows: bridging ECL in NHP serum; Renzo-1 500 ng/mL, signal with 1 µg/mL free EDI200 over signal without (Table 17).
Test [24] addresses EDI200 (human). As to the kind of experiment: bridging ECL in NHP serum; Renzo-1 7.81 ng/mL with 1 µg/mL free EDI200 as competitor.
Test [25] has as its target EDI200 (human). As to the kind of experiment: bridging ECL in NHP serum; Renzo-1 31.25 ng/mL, signal with 1 µg/mL free EDI200 over signal without (Table 17).
Test [26] has as its target EDI200 (human). The test is described as follows: bridging ECL in NHP serum; Renzo-1 31.25 ng/mL with 1 µg/mL free EDI200 as competitor.
The target in test [27] is EDI200 (human). As to the kind of experiment: bridging ECL in NHP serum; Renzo-1 7.81 ng/mL, signal with 1 µg/mL free EDI200 over signal without (Table 17).
In test [28] the target is EDI200 (human). The test is described as follows: bridging ECL in NHP serum; Renzo-1 250 ng/mL, signal with 1 µg/mL free EDI200 over signal without (Table 17).
For test [29], the target named is EDI200 (human). The test is described as follows: bridging ECL (biotin-EDI200/SulfoTag-EDI200) in NHP serum; Renzo-1 250 ng/mL.
Test [30] addresses EDI200 (human). The test is described as follows: bridging ECL (biotin-EDI200/SulfoTag-EDI200) in NHP serum; Renzo-1 31.25 ng/mL.
For test [31], the target named is EDI200 (human). The test is described as follows: bridging ECL in NHP serum; Renzo-1 125 ng/mL, signal with 1 µg/mL free EDI200 over signal without (Table 17).
Test [32] concerns the target EDI200 (human). As to the kind of experiment: bridging ECL in NHP serum; Renzo-1 250 ng/mL with 1 µg/mL free EDI200 as competitor.
Test [33] has as its target EDI200 (human). As to the kind of experiment: bridging ECL in NHP serum; Renzo-1 15.63 ng/mL with 1 µg/mL free EDI200 as competitor.
Test [34] deals with EDI200 (human). As to the kind of experiment: bridging ECL in NHP serum; Renzo-1 15.63 ng/mL, signal with 1 µg/mL free EDI200 over signal without (Table 17).
In test [35] the target is EDI200 (human). As to the kind of experiment: bridging ECL in NHP serum; Renzo-1 62.5 ng/mL with 1 µg/mL free EDI200 as competitor.
For test [36], the target named is EDI200 (human). The test is described as follows: bridging ECL (biotin-EDI200/SulfoTag-EDI200) in NHP serum; plate NCO 129.4.
Test [37] concerns the target EDI200 (human). The test is described as follows: bridging ECL in NHP serum; antibody 250 ng/mL with 1 µg/mL free EDI200.
The target of test [38] is EDI200 (human). The test is described as follows: bridging ECL (biotin-EDI200/SulfoTag-EDI200) in NHP serum; antibody 15.63 ng/mL.
Test [39] deals with EDI200 (human). The test is described as follows: bridging ECL in NHP serum; antibody 15.63 ng/mL, signal with 1 µg/mL free EDI200 over signal without.
Test [40] addresses EDI200 (human). As to the kind of experiment: bridging ECL (biotin-EDI200/SulfoTag-EDI200) in NHP serum; antibody 31.25 ng/mL.
In test [41] the target is EDI200 (human). The test is described as follows: bridging ECL in NHP serum; antibody 62.5 ng/mL, signal with 1 µg/mL free EDI200 over signal without.
Test [42] addresses EDI200 (human). As to the kind of experiment: bridging ECL in NHP serum; antibody 125 ng/mL, signal with 1 µg/mL free EDI200 over signal without.
Test [43] concerns the target EDI200 (human). The test is described as follows: bridging ECL in NHP serum; antibody 7.81 ng/mL with 1 µg/mL free EDI200.
In test [44] the target is EDI200 (human). As to the kind of experiment: bridging ECL (biotin-EDI200/SulfoTag-EDI200) in NHP serum; antibody 7.81 ng/mL.
In test [45] the target is EDI200 (human). As to the kind of experiment: bridging ECL in NHP serum; antibody 125 ng/mL with 1 µg/mL free EDI200.
For test [46], the target named is EDI200 (human). The test is described as follows: bridging ECL (biotin-EDI200/SulfoTag-EDI200) in NHP serum; antibody 125 ng/mL.
Test [47] concerns the target EDI200 (human). As to the kind of experiment: bridging ECL in NHP serum; antibody 31.25 ng/mL, signal with 1 µg/mL free EDI200 over signal without.
Test [48] concerns the target EDI200 (human). The test is described as follows: bridging ECL (biotin-EDI200/SulfoTag-EDI200) in NHP serum; antibody 250 ng/mL.
Test [49] concerns the target EDI200 (human). As to the kind of experiment: bridging ECL in NHP serum; antibody 15.63 ng/mL with 1 µg/mL free EDI200.
Test [50] has as its target EDI200 (human). As to the kind of experiment: bridging ECL (biotin-EDI200/SulfoTag-EDI200) in NHP serum; antibody 62.5 ng/mL.
In test [51] the target is EDI200 (human). The test is described as follows: bridging ECL in NHP serum; antibody 62.5 ng/mL with 1 µg/mL free EDI200.
The target in test [52] is EDI200 (human). As to the kind of experiment: bridging ECL in NHP serum; antibody 31.25 ng/mL with 1 µg/mL free EDI200.
Test [53] deals with EDI200 (human). As to the kind of experiment: bridging ECL in NHP serum; antibody 7.81 ng/mL, signal with 1 µg/mL free EDI200 over signal without.
For test [54], the target named is EDI200 (human). The test is described as follows: bridging ECL in NHP serum; antibody 500 ng/mL with 1 µg/mL free EDI200.
For test [55], the target named is EDI200 (human). The test is described as follows: bridging ECL (biotin-EDI200/SulfoTag-EDI200) in NHP serum; antibody 500 ng/mL; plate NCO 129.4.
Test [56] has as its target EDI200 (human). The test is described as follows: bridging ECL in NHP serum; antibody 250 ng/mL, signal with 1 µg/mL free EDI200 over signal without.
Test [57] has as its target EDI200 (human). The test is described as follows: bridging ECL in NHP serum; antibody 500 ng/mL, signal with 1 µg/mL free EDI200 over signal without.

Consider “Recombinant human Ectodysplasin A1 (from UniProt Q92838 160-391) (ligand)”, for which the Mean Conc. (read as EDI200 from the standard curve) is 5.34 ng/mL in [1], 5.43 ng/mL in [4], 6.14 ng/mL in test [10] and 4.77 ng/mL in test [12]. Also, the Mean OD in [1] was found to be 0.289 OD; in test [2] it was 0.234 OD; in [3] it was 0.14 OD; in [4], 0.292 OD; in test [5] it was 0.214 OD; in test [6] it was 0.18 OD. The Mean OD in [7] stood at 0.15 OD; in test [8], 0.125 OD; in test [9], 0.119 OD; in test [10] it was 0.316 OD; in [11] it was 0.18 OD; in test [12] it was 0.275 OD. The Mean OD is 0.121 OD in test [13] and 0.116 OD in test [14].
Regarding “Mouse monoclonal (Renzo-1) to EDA (antibody)”, the Drug/Non-drug Ratio in test [15] came out at 0.43; in [23], 0.18; in [25], 0.62; in test [27] it was 0.91; in test [28], 0.18; in test [31], 0.28. Besides, the Drug/Non-drug Ratio in [34] came to 0.77. Moreover, the Mean Signal in test [16] is 949 signal (ECL); in test [17], 89 signal (ECL); in [18], 306 signal (ECL); in [19], 176 signal (ECL); in [20], 102 signal (ECL); in test [21], 171 signal (ECL). For the same substance, the Mean Signal in [22] is 85 signal (ECL); in [24] it was 81 signal (ECL); in test [26] it was 80 signal (ECL); in test [29], 495 signal (ECL); in test [30] it was 129 signal (ECL); in test [32], 89 signal (ECL). Also, the Mean Signal is 78 signal (ECL) in test [33] and 75 signal (ECL) in [35]. The sensitivity (lowest antibody concentration with mean signal above the plate NCO) in test [36] came out at 62.5 ng/mL.
For the substance mouse anti-human CD106 IgG1 antibody, the Mean Signal was 80 signal (ECL) in [37]; 81 signal (ECL) in test [38]; 81 signal (ECL) in test [40]; 80 signal (ECL) in test [43]; 85 signal (ECL) in [44]; 76 signal (ECL) in test [45]. In addition, the Mean Signal was 82 signal (ECL) in [46]; 83 signal (ECL) in test [48]; 74 signal (ECL) in test [49]; 81 signal (ECL) in test [50]; 76 signal (ECL) in test [51]; 76 signal (ECL) in test [52]. The results for the Mean Signal in test [54] and in [55] were 81 signal (ECL) and 86 signal (ECL), respectively. The Drug/Non-drug Ratio in [39] is 0.91; in test [41], 0.94; in test [42] it was 0.93; in test [47], 0.93; in test [53] it was 0.93; in [56] it was 0.96. For the same substance, the Drug/Non-drug Ratio in [57] worked out at 0.95.

(Values after patent US20160272694A1.)
